From paper PMC10921019

Assays:
[1] = biological target: Parkin WT (pSer 65) (human) (UniProt O60260)
Parkin [W403A] (human) = Parkin [W403A] (human) (UniProt O60260)
Parkin [F146A] (human) = Parkin [F146A] (human) (UniProt O60260)
[2] = biological target: Human wild type Parkin 1-465 (human) (UniProt O60260)

Question: “p-Ubiquitin-His (pSer65-ubiquitin-6His) (natural protein)” was tested. Which Ub-K formation %, MALDI-TOF discharge assay of p-Parkin without or with p-Ub-His (100, 500, 2500 nM) (% Ub-K formation) [1] did it give?
Answer: 78

Question: And the residual Ub % after 10 min, MALDI-TOF auto-ubiquitylation assay of p-Parkin without or with p-Ub-His (100, 500, 2500 nM) (% residual Ub) [1]?
Answer: 31.5

Question: What about the EC50 of p-Ub-His for the activation of Parkin, MALDI-TOF auto-ubiquitylation assay (500 nM Parkin, 0.05-5 μM p-Ub-His, 30 min) (Parkin [W403A] (human)) of the same substance?
Answer: 200 nM

Question: And the EC50 of p-Ub-His for the activation of Parkin, MALDI-TOF discharge assay (500 nM Parkin, 0.05-5 μM p-Ub-His, 30 min) (Parkin [W403A] (human))?
Answer: 500 nM

Question: And the EC50 of p-Ub-His for the activation of Parkin, MALDI-TOF auto-ubiquitylation assay (500 nM Parkin, 0.05-5 μM p-Ub-His, 30 min) (Parkin [F146A] (human))?
Answer: 400 nM

Question: And the EC50 of p-Ub-His for the activation of Parkin, MALDI-TOF discharge assay (500 nM Parkin, 0.05-5 μM p-Ub-His, 30 min) (Parkin [F146A] (human))?
Answer: 600 nM

Question: And the EC50 of p-Ub-His for the activation of Parkin, MALDI-TOF auto-ubiquitylation assay (500 nM Parkin, 0.05-5 μM p-Ub-His, 30 min) [2]?
Answer: 2000 nM

Question: And the EC50 of p-Ub-His for the activation of Parkin, MALDI-TOF discharge assay (500 nM Parkin, 0.05-5 μM p-Ub-His, 30 min) [2]?
Answer: 1400 nM
